For the test, the target named is RQR8. Kind of test: cell-based or functional assay.

The source of these data is patent US20170240920A1.

“clinical grade human-rituximab (antibody)”: the eGFP positive cells in the sorted fraction (K562 cells, human rituximab on protein-A beads) worked out at 89.4%; the transduced target cells with LV sorted with beads (RDpro pseudotyped LV) was 14.1%; the transduced target cells with the purified fraction (VSV-G pseudotyped LV) was 73.6%.
